assay: soluble on expression in E. coli; label from the status in PepcDB or PDB records

Row | Sequence | soluble on expression in E. coli
1 | MSLERSLSVTILFQDVPVSVWEINKNTPQPDWVKNCFENNTMVWYDNRLKILVKAINPSPKRDVKLGLRDTMLGYYGGGFVMGNIGDYFDATNGRVLSKKKFYKQYVINEEGHHHHHH | not soluble
2 | MSLETFLCGKESCNKGYIRHPWYGKKVGYIGDSITDPNCYGDNIKKYWDFLKEWLDITPYVYGVSGRQWNDVPRQAEQLKKEHGEEVDAIVVLMGTNDFNSSVPVGTWFAEKEEQVMAARGETKKLETRKRRVPIMTNDTYKGRINIGLSHLKKLFPDKQIVLLTPLHRSLAEFGEKNVQPDESYQNKCGEYVDAYVQAIKEAGNLWGVPVIDFNSVTGMNPMIEEQLIYFYDSGYDRLHPNTNGQERMAHTLMYQLLSLPASFEGHHHHHH | soluble
3 | MSLETSTQCTSAVAHTSGRRNYNEDRICVATNIEGADLFAVFDGHNGHEAATLCRNKLKQVYGSCHGNINDTFQSLNDIVSKETTAGCTATIVAVKQNSIEVGNCGDSPAYVIRKDKSIEKITYDHKATDPKEEEMIVKNGGVVMNLFGTKRVNGQIMVTRSIGDRSLHPPMTSIPTTKIISKEDIISICVMSDGVTDALTDLEIHDIMTNGQPIEIRAQTIRNQAYKEGSKDNICVVVVDLEGHHHHHH | soluble
4 | MSLFGTSTTAPAASTTPLFGSTAAAAPKPGGLFGAPAAAMSSGLFGASQTAPAPASAGLFGSTTAPTPASTSSVPLFGSTTTTASPSGGLFGAKTATTAAPAPTGGLFGASTAAPATGSLFGSTAPATGGLFGAKSTTSAAPTLGGGLFGSSTAPAAAATTSFGAPPATAAAPLGLGGIQQQNSSGGGLPNASGTATSSLTGTGDSKDASKDGEWTQAATLIRDLLPLIEDKFKKNREFMEETENMSIDNVAIEEQIDKTRGWIEEVRRDVLTATQSSERIAYLVSTDKTLCDTTKRVQEHSGSANQTTYMNAIKEHLAELCNFYGNDMDALQERVNFLRNRFEKLLTGEKSITMEELDAYFLRCDANVSNAHHHVTELGKEIEEIRDFLIEQGYTQLRKWSTTAASAAAPIASNSEMIVREGAEFFPSQSSLAIIGSSLRAPAAPAPAVGGLGLGTGTSLFGNTGTTSLFGSTATKPAFSGGSLFGATTSTATSSAAATTTTPTTSLFGSTKPATTTTPFASTVANNSSGLLFSSKK | not soluble
5 | MSLFINKEAELQWVREYARRSHATPFVIYGPEGCGKTALALEAVRRFSSWYAGGIALYIDGKARRAAEAVKSNVNIGDVLAEVGGLAGSVGRSAARLAVWLLGKIVEKIAERFAPMNILVVDELFSAVGVSEGALAVKYAKELGDRVLRSKKAELGEIPKPLAEASVSYLIFSSEGSSRRELSRHNWAHIALMWNMGERGFQQLGEILGAPDFSAAWRLCGGQPPLPFPISRAGLGRGKIPNSNREGHHHHHH | soluble
6 | MSLGDEWARIRKDGALLIGLEGTFPPYSQLAGGQLQGFEVDFGRALAAQMGVTARFQTMVWDHMLDSLAAGRLDAVINQVVATPARGKRFDFSIPYTYSGLQLVVRKPDLTRFRGARDLAGAHVGVSAGTNYEQWLRDNAPQAHIHLYQDDPTKFDGLRRGEVDAIVINRLAAFNLALKSQGELVPTGRVLAREDACVVLRKGNPRLLAEVNRAIGHLQRDGTLQALSRKWFKADIVSEGHHHHHH | soluble
7 | MSLGETAWCRHPLAYLVEAADDICYALLDLEDGLEMGILRFDEVAEILIQIAGGAPEGYDGMRARGVSQRRRIATLRGAAMERAVNDVAAVFVAHESALLGGTLSEDLLELCHPDLGWGVGTAKRIARERIFQNERKAKLEIGAYTTLGILLEAFIGAAHELHYSGQSSFKHQRVLALIGENTPKSSWSLYASYRRMLDFIGGMTDHYAVDLAQEMGGRLEGHHHHHH | not soluble
8 | MSLGFIEEIKSALGNYVITEKKDLIPYMNDASYFTGEMPEAVVLPGSAEDVQTIMRLAYKYEKPVVVKGGGSSLTGSSILKESGIVMSMLRMNRILDINLNDKCVTVEPGLRLNDLQLYLDKYGHFYPPDPASSMAATVGGSISTNAGGLRGVAYGVTKDWILGLDVVLADGTMVKFGNKTLKRTLGYDLTSLMIGSEGTLGVITKAYLKIWPKPQKVARLVAFYQDIESAGRAVNELKVSTIPEMAEFLDKISLDSVPEAITYPPGTKYALIIDVSGPPELLGKKKTETEELLKRYAISTKSTTDPAEMEKIYRARKGLYASILKLRKSEKEYIVIGDIVVPVSELPTSLKEIEKKRDEDGVRAAIFGHIGDGNIHANIFADLGDNSAMDKVNRFMMDLAMVAVKHGGSVSAEHGIGIEKKQLLIEEMKYNNNLRTLDIMKAIKQVFDPKNILNRGNIFEEGHHHHHH | soluble
9 | MSLGHIIVTGAGSGLGRALTIGLVERGHQVSMMGRRYQRLQQQELLLGNAVIGIVADLAHHEDVDVAFAAAVEWGGLPELVLHCAGTGEFGPVGVYTAEQIRRVMESNLVSTILVAQQTVRLIGERGGVLANVLSSAAQVGKANESLYCASKWGMRGFLESLRAELKDSPLRLVNLYPSGIRSEFWDNTDHVDPSGFMTPEDAAAYMLDALEARSSCHVTDLFIGRNEGHHHHHH | soluble
10 | MSLGKATGFLEFGRELPKKIDPAERIKNNKEFVLNQEFGKKINQQASRCMDCGVPFCHNGCPIGNIIPEFNDAVYRDSWEEAWNILSSTNNFPEFTGRVCPAPCETACVLGINQDPITICNIEKTIVERAYQEGYAKPKTPRSRTGKTVAIIGSGPAGLAAAEQLNAAGHSVTVFERDEKVGGLLRFGIPDFKLGMDVIDRKINLMEQAGVKFVVNAHIGVDINAQQLRQEFDAVLLTGGSTVPRDLSIPGRDLKGVYFAMQFLAQNNRRANGMDLKGEEIHAKGKHVVVIGGGDTGSDCVGTSNRHGAASITQVEIMPIPPQKRPVNMPWPQYPMILRTSTSHEEGCERHWNILTKEFIGNEQGEVTGLRIADIVWKDAAPGERPSFDEVVGSERVIPCDMAFLAMGFLHPEPHGVLAQLGIKLDERGNVATQDFATNQKGVFAAGDMRTGQSLVVRCINEGRECARAVDTFLMGNTHLEAKADSLMLSAEGHHHHHH | soluble
11 | MSLGLSKTIWTNPAEYLRALSPEAPVLFFSPSTLQATARRFIDGFPGMVTYAVKSNPEEVVIENLAAAGIRGYDVASPHEIRMIRRIAPDAALHYNNPVRSRSEIGVGVEMGVKSWSVDSASELAKLIELVPAEGCEIAVRFKLAVSGAAYNFGAKFGATVELAVELLRRVAEAGFIPSMTFHPGTQCTDPAAWETYIRTAAEIARDAGVTIARLNVGGGFPSHRLNGVEPELEAIFHLIDRVTDEAFGADRPLLVCEPGRGICADAFTLAARIKAVRDDAHVFLNDGVYGSLTELPMIGVIDRVAVLTPEGRRRDGETRDRIIFGPTCDSVDRLPGELPLAADVEEGDFLVFQGMGAYSAATNTRFNGFGELSMATVLSLKEGHHHHHH | soluble
12 | MSLGMRDVAKEAGVSLSTVSLVVNKTGYVSDDMRARVEAAMKELNYVPNELARNLYKNRTNLVGVIVPTIRHPFFATLTAHLQRELAAQGLRTMLCSTADAENGEVEYVDMLRRHMMDGIIVCSHTTHPNDYWTSIHRPIVAFDRVLGGGIASIGSDHEQGGRLMAHMLVNTGAHHVVMIGGPRDQFFDLAARNGDSPDDFDLHKTTFPTVRYYLALEQELKAAGVRYEYVEAGNVEDFQGYKNAVNAVLNSMPVDGVDAVVSSDIGAALCVREAMRRHISIPRDLQIIAYDGTYLTDLAGMKMTAVAQNFDKIAQVAVGNIVRAIAKEGDAKADTTSATGRKPYEPDVLIPVTLKLGDTTREGHHHHHH | soluble
13 | MSLGSIITLYSPVGGIGKSTIAIEMAKKLSDSNKKVLYLNLEDLQSTLVFFECSTSKNMSDFLYFIKERDENFKEVLKDIVLKDEESGINYFAPVDSVLDIEDLKVDDVKFMLQKLIEVNMYNYIIIDLSSTFNINYKTIFEMSSKIIVPIGQDKLSSVKLQNFLKQLDNLENFSFIQNKYKDNLETIIPHVLLREKKPIIQKIYYDEALESVSSLIYLKNRASTFLRCIDELIMKLLEGHHHHHH | soluble

Reference: the DeepSol protein solubility set
